B1: SRCR1 peptide P15 (peptide)
peptide: Biotin-ALDDVRCSGHESYLW
B2: SRCR1 peptide P14 (peptide)
peptide: Biotin-GSGPIALDDVRCSGH
B3: SRCR1 peptide P6 (peptide)
peptide: Biotin-RGSWGTVCDDSWDTN
B4: SRCR1 peptide P19, biotinylated (peptide)
peptide: Biotin-GWLSHNCGHGEDAGV
B5: SRCR1 peptide P5 (peptide)
peptide: Biotin-VEILYRGSWGTVCDD
B6: SRCR1 peptide P20 (peptide)
peptide: Biotin-NCGHGEDAGVICSA
modifications: cysteine pairing not given here

Ends that are not written are not given here. * marks the point of attachment. Biotin = O=C1N[C@H]2[C@H](CS[C@H]2CCCCC(=O)*)N1

In the experiment the target is recombinant HIV-1 gp120BaL protein (HIV-1 (isolate BaL)). Briefly: ELISA; solid-phase ELISA; gp120BaL coated at 8 ug/ml (50 mM bicarbonate pH 9.6, 4°C, 16 h); biotinylated peptides at 30 ug/ml in 20 mM Tris-HCl pH 7.4, 0.05% Tween-20, 37°C, 60 min; detected with AP-streptavidin, read at 405 nm.
In the case of B1, the relative binding was 2.
B2: the relative binding amounted to 1.5.
As for B3, the relative binding was 4.5.
As for B4, the figure is 7.5; as for B5, 4; as for B6, 1.5.
